Experimental data published in patent US20050043232A1.
Positions count from the first letter of the chain named.

T1: myostatin pro peptide (wild type)
T1 sequence: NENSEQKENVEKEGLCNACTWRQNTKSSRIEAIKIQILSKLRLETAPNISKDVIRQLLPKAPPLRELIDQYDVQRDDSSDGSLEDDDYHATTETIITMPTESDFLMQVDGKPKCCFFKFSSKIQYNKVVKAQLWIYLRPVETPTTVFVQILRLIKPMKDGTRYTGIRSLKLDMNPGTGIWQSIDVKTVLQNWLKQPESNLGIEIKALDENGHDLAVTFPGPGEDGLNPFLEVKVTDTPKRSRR

T2: myostatin pro peptide (wild type) (Homo sapiens (Human)) (UniProt O14793)
T2 sequence: T1 sequence

T3: 30-mer D to A mutant peptide (SEQ ID NO:17)
T3 sequence: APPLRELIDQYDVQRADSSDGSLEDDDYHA

T4: 40-mer R to Q mutant peptide (SEQ ID NO:13)
T4 sequence: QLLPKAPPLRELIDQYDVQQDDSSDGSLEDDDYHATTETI

T5: 20-mer wild type myostatin pro peptide peptide (SEQ ID NO:18)
T5 sequence: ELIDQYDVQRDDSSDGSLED

T6: 20-mer R to Q mutant peptide (SEQ ID NO:19)
T6 sequence: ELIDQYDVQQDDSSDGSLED

T7: 40-mer D to A mutant peptide (SEQ ID NO:14)
T7 sequence: T4 sequence with Q20R, D21A

T8: 20-mer D to A mutant peptide (SEQ ID NO:20)
T8 sequence: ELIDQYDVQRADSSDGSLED

T9: 30-mer R to Q mutant peptide (SEQ ID NO:16)
T9 sequence: T3 sequence with R15Q, A16D

T10: 40-mer wild type myostatin pro peptide peptide (SEQ ID NO:12)
T10 sequence: T4 sequence with Q20R

T11: 30-mer wild type myostatin pro peptide peptide (SEQ ID NO:15)
T11 sequence: T3 sequence with A16D

B1: mammalian Tolloid-like-1 (mTLL-1) (enzyme, UniProt Q62381 148-1013, looked up, species assumed)
Tolloid-like protein 1: AATSRTERIWPGGVIPYVIGGNFTGSQRAMFKQAMRHWEKHTCVTFTERSDEESYIVFTYRPCGCCSYVGRRGNGPQAISIGKNCDKFGIVVHELGHVIGFWHEHTRPDRDNHVTIIRENIQPGQEYNFLKMEPGEVNSLGERYDFDSIMHYARNTFSRGMFLDTILPSRDDNGIRPAIGQRTRLSKGDIAQARKLYRCPACGETLQESSGNLSSPGFPNGYPSYTHCIWRVSVTPGEKIVLNFTTMDLYKSSLCWYDYIEVRDGYWRKSPLLGRFCGDKVAGVLTSTDSRMWIEFRSSSNWVGKGFAAVYEAICGGEIRKNEGQIQSPNYPDDYRPMKECVWKIMVSEGYHVGLTFQAFEIERHDSCAYDHLEVRDGASENSPLIGRFCGYDKPEDIRSTSNTLWMKFVSDGTVNKAGFAANFFKEEDECAKPDRGGCEQRCLNTLGSYQCACEPGYELGPDRRSCEAACGGLLTKLNGTITTPGWPKEYPPNKNCVWQVIAPSQYRISVKFEFFELEGNEVCKYDYVEIWSGPSSESKLHGKFCGADIPEVMTSHFNNMRIEFKSDNTVSKKGFKAHFFSDKDECSKDNGGCQHECVNTMGSYTCQCRNGFVLHENKHDCKEAECEQKIHSPSGLITSPNWPDKYPSRKECTWVISAIPGHRITLAFNEFEVEQHQECAYDHLEIFDGETEKSPILGRLCGSKIPDPLMATGNEMFIRFISDASVQRKGFQATHSTECGGRLKAESKPRDLYSHAQFGDNNYPGQLDCEWLLVSERGSRLELSFQTFEVEEEADCGYDYVEVFDGLSSKAVGLGRFCGSGPPEEIYSIGDVALIHFHTDDTINKKGFYIRYKSIRYPETMHAKN
B2: bone morphogenic protein-1 (BMP-1) (enzyme, UniProt P13497 121-986, looked up, species assumed)
Bone morphogenetic protein 1: AATSRPERVWPDGVIPFVIGGNFTGSQRAVFRQAMRHWEKHTCVTFLERTDEDSYIVFTYRPCGCCSYVGRRGGGPQAISIGKNCDKFGIVVHELGHVVGFWHEHTRPDRDRHVSIVRENIQPGQEYNFLKMEPQEVESLGETYDFDSIMHYARNTFSRGIFLDTIVPKYEVNGVKPPIGQRTRLSKGDIAQARKLYKCPACGETLQDSTGNFSSPEYPNGYSAHMHCVWRISVTPGEKIILNFTSLDLYRSRLCWYDYVEVRDGFWRKAPLRGRFCGSKLPEPIVSTDSRLWVEFRSSSNWVGKGFFAVYEAICGGDVKKDYGHIQSPNYPDDYRPSKVCIWRIQVSEGFHVGLTFQSFEIERHDSCAYDYLEVRDGHSESSTLIGRYCGYEKPDDIKSTSSRLWLKFVSDGSINKAGFAVNFFKEVDECSRPNRGGCEQRCLNTLGSYKCSCDPGYELAPDKRRCEAACGGFLTKLNGSITSPGWPKEYPPNKNCIWQLVAPTQYRISLQFDFFETEGNDVCKYDFVEVRSGLTADSKLHGKFCGSEKPEVITSQYNNMRVEFKSDNTVSKKGFKAHFFSDKDECSKDNGGCQQDCVNTFGSYECQCRSGFVLHDNKHDCKEAGCDHKVTSTSGTITSPNWPDKYPSKKECTWAISSTPGHRVKLTFMEMDIESQPECAYDHLEVFDGRDAKAPVLGRFCGSKKPEPVLATGSRMFLRFYSDNSVQRKGFQASHATECGGQVRADVKTKDLYSHAQFGDNNYPGGVDCEWVIVAEEGYGVELVFQTFEVEEETDCGYDYMELFDGYDSTAPRLGRYCGSGPPEEVYSAGDSVLVKFHSDDTITKKGFHLRYTSTKFQDTLHSRK
B3: mammalian Tolloid-like-2 (mTLL-2) (enzyme, UniProt Q9WVM6 147-1012, looked up, species assumed)
Tolloid-like protein 2: ATTSRTERIWPGGVIPYVIGGNFTGTQRAIFKQAMRHWEKHTCVTFVERTDEESFIVFSYRTCGCCSYVGRRGGGPQAISIGKNCDKFGIVAHELGHVVGFWHEHTRPDRDQHVTIIRENIQPGQEYNFLKMEAGEVSSLGETYDFDSIMHYARNTFSRGVFLDTILPRRDDNGVRPTIGQRVRLSQGDIAQARKLYKCPACGETLQDTTGNFSAPGFPNGYPSYSHCVWRISVTPGEKIILNFTSMDLFKSRLCWYDYVEIRDGYWRKAPLLGRFCGDKIPESLVSSDSRLWVEFRSSSSSLGKGFFAVYEAMCGGDITKDAGQIQSPNYPDDYRPSKECVWRITVPDGFHVGLTFQSFEIERHDSCAYDYLEIRDGPTEDSTLIGHFCGYEKPEAVKSSANRLWVKFVSDGSINKAGFAANFFKEVDECSWPDHGGCEQRCVNTLGSYTCACDPGYELAADKKTCEVACGGFITKLNGTITSPGWPKEYPTNKNCVWQVVAPVQYRISLQFEAFELEGNDVCKYDFVEVRSGLSPDAKLHGKFCGSETPEVITSQSNNMRVEFKSDNTVSKRGFRAHFFSDKDECAKDNGGCQQECVNTFGSYLCRCRNGYRLHENGHDCKEAGCAYKISSAEGTLMSPNWPDKYPSRKECTWNISSTAGHRVKITFSEFEIEQHQECAYDHLELYDGTDSLAPILGRFCGSKKPDPVVATGSSLFLRFYSDASVQRKGFQAVHSTECGGRLKAEVQTKELYSHAQFGDNNYPSQARCDWVIVAEDGYGVELIFRTFEVEEEADCGYDFMEAYDGYDSSAPRLGRFCGSGPLEEIYSAGDSLMIRFHTDDTINKKGFHARYTSTKFQDALHMRK

What was measured:
[1] = tested on: T1, myostatin pro peptide (wild type)
[2] = target: T2, myostatin pro peptide (wild type) (Homo sapiens (Human)); test: cell-based or functional assay
[3] = tested on: T3, 30-mer D to A mutant peptide (SEQ ID NO:17)
[4] = tested on: T4, 40-mer R to Q mutant peptide (SEQ ID NO:13)
[5] = tested on: T5, 20-mer wild type myostatin pro peptide peptide (SEQ ID NO:18)
[6] = tested on: T6, 20-mer R to Q mutant peptide (SEQ ID NO:19)
[7] = tested on: T7, 40-mer D to A mutant peptide (SEQ ID NO:14)
[8] = tested on: T8, 20-mer D to A mutant peptide (SEQ ID NO:20)
[9] = tested on: T9, 30-mer R to Q mutant peptide (SEQ ID NO:16)
[10] = tested on: T10, 40-mer wild type myostatin pro peptide peptide (SEQ ID NO:12)
[11] = tested on: T11, 30-mer wild type myostatin pro peptide peptide (SEQ ID NO:15)

Molecule | partial proteolytic cleavage of pro peptide in the latent complex, western blot (FIG. 3E; 1 µg complex, 250 ng proteinase, 16 hours 37° C.) [1] | proteolytic cleavage of free pro peptide (purified away from the C-terminal dimer) [1] | proteolytic cleavage of pro peptide, SDS-PAGE and western blot (500 ng substrate, 100 ng protease, overnight 37° C.; free pro peptide and latent complex) [1] | fraction of proteolytically-cleaved myostatin complex active in the luciferase reporter assay (against a standard curve of C-terminal dimer) [2] [%] | proteolytic cleavage of pro peptide in the purified latent complex, SDS-PAGE and western blot (FIG. 3D) [1] | cleavage of synthetic peptide by conditioned medium containing TLL-2, C18 HPLC and mass spectrometry [3] | cleavage of synthetic peptide by conditioned medium containing TLL-2, C18 HPLC and mass spectrometry [4] | cleavage of synthetic peptide by conditioned medium containing TLL-2, C18 HPLC and mass spectrometry [5] | cleavage of synthetic peptide by conditioned medium containing TLL-2, C18 HPLC and mass spectrometry [6] | cleavage of synthetic peptide by conditioned medium containing TLL-2, C18 HPLC and mass spectrometry [7] | cleavage of synthetic peptide by conditioned medium containing TLL-2, C18 HPLC and mass spectrometry [8] | cleavage of synthetic peptide by conditioned medium containing TLL-2, C18 HPLC and mass spectrometry [9] | cleavage of synthetic peptide by conditioned medium containing TLL-2, C18 HPLC and mass spectrometry [10] | cleavage of synthetic peptide by conditioned medium containing TLL-2, C18 HPLC and mass spectrometry [11]
mammalian Tolloid (mTLD) | mTLD was consistently less active than the other three | All four of these proteinases also cleaved pro peptide that had been purified away from the C-terminal dimer | each of the proteases cleaved the pro peptide whether it was in a purified form or in a complex with the myostatin C-terminal dimer |  |  |  |  |  |  |  |  |  |  | 
B1 | Three of the proteinases, BMP-1, mTLL-1, and mTLL-2, were approximately equally effective in cleaving the pro peptide | All four of these proteinases also cleaved pro peptide that had been purified away from the C-terminal dimer | each of the proteases cleaved the pro peptide whether it was in a purified form or in a complex with the myostatin C-terminal dimer | > 50 |  |  |  |  |  |  |  |  |  | 
B2 | Three of the proteinases, BMP-1, mTLL-1, and mTLL-2, were approximately equally effective in cleaving the pro peptide | All four of these proteinases also cleaved pro peptide that had been purified away from the C-terminal dimer | each of the proteases cleaved the pro peptide whether it was in a purified form or in a complex with the myostatin C-terminal dimer |  | incubation of the purified latent complex with purified BMP-1 resulted in complete cleavage of the pro peptide to generate a single product |  |  |  |  |  |  |  |  | 
B3 | Three of the proteinases, BMP-1, mTLL-1, and mTLL-2, were approximately equally effective in cleaving the pro peptide | All four of these proteinases also cleaved pro peptide that had been purified away from the C-terminal dimer | each of the proteases cleaved the pro peptide whether it was in a purified form or in a complex with the myostatin C-terminal dimer |  |  | the peptides containing the D→A mutation at the P1′ position were not cleaved | The 40-mer, 30-mer, and 20-mer wild type and R→Q mutant peptides were cleaved by conditioned media containing TLL-2 | The 40-mer, 30-mer, and 20-mer wild type and R→Q mutant peptides were cleaved by conditioned media containing TLL-2 | The 40-mer, 30-mer, and 20-mer wild type and R→Q mutant peptides were cleaved by conditioned media containing TLL-2 | the peptides containing the D→A mutation at the P1′ position were not cleaved | the peptides containing the D→A mutation at the P1′ position were not cleaved | The 40-mer, 30-mer, and 20-mer wild type and R→Q mutant peptides were cleaved by conditioned media containing TLL-2 | The 40-mer, 30-mer, and 20-mer wild type and R→Q mutant peptides were cleaved by conditioned media containing TLL-2 | The 40-mer, 30-mer, and 20-mer wild type and R→Q mutant peptides were cleaved by conditioned media containing TLL-2
